Measured values published in article PMC10435448, “A RAD51–ADP double filament structure unveils the mechanism of filament dynamics in homologous recombination”.

Target: hRAD51 wild-type (Homo sapiens, UniProt Q06609 1-339)
Experiment: cryo-EM structure (3.1 A); 1 mM ADP, 5 mM CaCl2, 2.5 mM MgCl2; ssDNA density weak and diffuse; EMSA: 35 mM Tris-HCl pH 7.5, 1 mM DTT, 10 mM MgCl2, 100 ng/ul BSA, 50 mM KCl, 2 mM ADP, 37 C 10 min, 2% agarose TAE at 4 C; cryo-EM: 35 mM Tris-HCl pH 7.5, 108
Details: protein: recombinant; tags: none stated (pET11, untagged purification); chain copies: 10; single strand

hRAD51 wild-type, sequence (Q06609 whole entry): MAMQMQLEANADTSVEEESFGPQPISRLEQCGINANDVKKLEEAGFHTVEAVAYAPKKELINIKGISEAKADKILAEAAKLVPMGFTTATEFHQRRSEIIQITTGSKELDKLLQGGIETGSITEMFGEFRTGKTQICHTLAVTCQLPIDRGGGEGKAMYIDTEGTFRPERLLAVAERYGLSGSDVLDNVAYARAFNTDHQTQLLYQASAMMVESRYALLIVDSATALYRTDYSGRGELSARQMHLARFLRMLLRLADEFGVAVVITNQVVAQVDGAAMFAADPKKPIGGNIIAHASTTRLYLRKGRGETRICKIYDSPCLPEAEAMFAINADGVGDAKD

B1: Oligo 1 (80 nt ssDNA), unlabeled (ssDNA)
DNA: TTATGTTCATTTTTTATATCCTTTACTTTATTTTCTCTGTTTATTCATTTACTTATTTTGTATTATCCTTATCTTATTTA
binding result: binds
